# According to PMC6155126:
# Tests used:
# [1] = biological target: Ku70/80 (Ku70 subunit);Ku70/80 (Ku80 subunit);Pol λ WT (Homo sapiens;Homo sapiens;Homo sapiens, UniProt P12956;P13010;Q9UGP5 1-609;1-732;1-575, ||); assay: EMSA supershift; 20 nM Ku; EMSA: 50 mM Tris-HCl pH 7.5, 100 mM KCl, 2.5 mM MgCl2, 1 mM DTT, 4% glycerol, 0.05% Triton X-100, 0.1 mg/ml BSA, 10-20 nM DNA, 30 min at 25 °C; 4-5% native PAGE, 0.5x TBE, 4 °C; conditions: protein: recombinant;recombinant;recombinant; tags: FLAG;FLAG;FLAG; copies: 1;1;1; label: 5' IRDye 700 on one strand; 5-nt gap
# Chain of Ku70/80 (Ku70 subunit);Ku70/80 (Ku80 subunit);Pol λ WT (P12956 whole entry, chain 1 of 3): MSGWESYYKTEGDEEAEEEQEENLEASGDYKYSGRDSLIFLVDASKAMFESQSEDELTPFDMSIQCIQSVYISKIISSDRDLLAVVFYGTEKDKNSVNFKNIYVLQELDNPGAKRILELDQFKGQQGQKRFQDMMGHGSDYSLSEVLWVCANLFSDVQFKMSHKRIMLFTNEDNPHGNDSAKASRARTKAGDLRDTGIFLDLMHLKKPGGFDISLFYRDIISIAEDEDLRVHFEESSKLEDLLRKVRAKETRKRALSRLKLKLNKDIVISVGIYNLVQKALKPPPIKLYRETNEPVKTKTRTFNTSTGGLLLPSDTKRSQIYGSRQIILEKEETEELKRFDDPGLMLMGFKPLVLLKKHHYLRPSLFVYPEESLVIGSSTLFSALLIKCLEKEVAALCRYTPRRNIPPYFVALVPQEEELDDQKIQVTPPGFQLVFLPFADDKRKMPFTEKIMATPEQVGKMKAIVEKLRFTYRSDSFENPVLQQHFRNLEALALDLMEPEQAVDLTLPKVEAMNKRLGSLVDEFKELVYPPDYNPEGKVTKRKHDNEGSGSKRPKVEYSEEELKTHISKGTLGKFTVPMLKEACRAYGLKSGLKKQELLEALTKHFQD
# Chain of Ku70/80 (Ku70 subunit);Ku70/80 (Ku80 subunit);Pol λ WT (P13010 whole entry, chain 2 of 3): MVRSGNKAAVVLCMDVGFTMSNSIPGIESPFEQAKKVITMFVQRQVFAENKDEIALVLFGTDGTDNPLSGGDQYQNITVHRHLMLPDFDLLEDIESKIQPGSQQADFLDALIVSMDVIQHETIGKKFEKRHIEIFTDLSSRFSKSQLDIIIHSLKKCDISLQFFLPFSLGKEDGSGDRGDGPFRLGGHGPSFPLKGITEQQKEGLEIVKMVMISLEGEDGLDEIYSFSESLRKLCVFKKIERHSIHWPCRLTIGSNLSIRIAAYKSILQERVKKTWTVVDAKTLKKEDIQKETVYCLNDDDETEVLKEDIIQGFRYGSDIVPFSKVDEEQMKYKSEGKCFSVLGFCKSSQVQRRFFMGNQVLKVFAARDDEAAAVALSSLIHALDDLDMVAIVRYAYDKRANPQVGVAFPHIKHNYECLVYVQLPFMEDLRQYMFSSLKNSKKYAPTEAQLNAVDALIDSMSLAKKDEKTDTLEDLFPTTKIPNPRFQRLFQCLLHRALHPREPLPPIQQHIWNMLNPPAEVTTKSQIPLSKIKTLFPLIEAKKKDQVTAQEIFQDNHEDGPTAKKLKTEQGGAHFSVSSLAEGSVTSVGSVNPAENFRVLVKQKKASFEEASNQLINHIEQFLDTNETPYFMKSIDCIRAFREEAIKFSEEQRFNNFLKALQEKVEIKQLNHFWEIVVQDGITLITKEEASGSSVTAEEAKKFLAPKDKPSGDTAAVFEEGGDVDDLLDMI
# Chain of Ku70/80 (Ku70 subunit);Ku70/80 (Ku80 subunit);Pol λ WT (Q9UGP5 whole entry, chain 3 of 3): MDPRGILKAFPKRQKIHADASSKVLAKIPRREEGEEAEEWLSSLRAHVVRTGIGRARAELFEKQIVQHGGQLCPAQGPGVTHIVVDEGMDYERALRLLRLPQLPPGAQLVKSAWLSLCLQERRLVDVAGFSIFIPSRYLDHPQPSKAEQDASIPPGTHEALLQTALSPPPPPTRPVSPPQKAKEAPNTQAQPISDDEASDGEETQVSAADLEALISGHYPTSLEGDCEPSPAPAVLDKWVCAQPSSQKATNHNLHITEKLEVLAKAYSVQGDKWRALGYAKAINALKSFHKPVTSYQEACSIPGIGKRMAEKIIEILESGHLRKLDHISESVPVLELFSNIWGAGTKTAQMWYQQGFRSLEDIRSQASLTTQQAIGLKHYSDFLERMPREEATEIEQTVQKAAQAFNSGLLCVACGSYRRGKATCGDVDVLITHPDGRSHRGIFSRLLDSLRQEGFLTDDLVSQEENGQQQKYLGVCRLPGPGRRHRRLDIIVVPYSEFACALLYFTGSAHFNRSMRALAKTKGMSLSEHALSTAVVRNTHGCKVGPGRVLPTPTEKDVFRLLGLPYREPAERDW
# [2] = biological target: Ku70/80 (Ku70 subunit);Ku70/80 (Ku80 subunit);Pol λ WT;PAXX (cleaved) (Homo sapiens;Homo sapiens;Homo …, UniProt P12956;P13010;Q9UGP5;Q9BUH6 1-609;1-732;1-575;1-204, |||); assay: EMSA supershift; 20 nM Ku, 0.5 µM PAXX; EMSA: 50 mM Tris-HCl pH 7.5, 100 mM KCl, 2.5 mM MgCl2, 1 mM DTT, 4% glycerol, 0.05% Triton X-100, 0.1 mg/ml BSA, 10-20 nM DNA, 30 min at 25 °C; 4-5% native PAGE, 0.5x TBE, 4 °C; conditions: protein: recombinant;recombinant;recombinant;recombinant; tags: FLAG;FLAG;FLAG;GST tag cleaved (PreScission); copies: 1;1;1;2; label: 5' IRDye 700 on one strand; 5-nt gap
# [3] = biological target: Ku70/80 (Ku70 subunit);Ku70/80 (Ku80 subunit);PAXX (cleaved) (Homo sapiens;Homo sapiens;Homo sapiens, UniProt P12956;P13010;Q9BUH6 1-609;1-732;1-204, ||); assay: as above; conditions: protein: recombinant;recombinant;recombinant; tags: FLAG;FLAG;GST tag cleaved (PreScission); copies: 1;1;2; label: 5' IRDye 700 on one strand; 5-nt gap
# [4] = biological target: Ku70/80 (Ku70 subunit);Ku70/80 (Ku80 subunit);Pol λ R57A/L60A (RL) (Homo sapiens;Homo sapiens;Homo sapiens, UniProt P12956;P13010;Q9UGP5 1-609;1-732;1-575, ||R57A;L60A); assay: EMSA supershift; 20 nM Ku, 50 nM Pol λ-RL; mutant does not join DNA-bound Ku; EMSA: 50 mM Tris-HCl pH 7.5, 100 mM KCl, 2.5 mM MgCl2, 1 mM DTT, 4% glycerol, 0.05% Triton X-100, 0.1 mg/ml BSA, 10-20 nM DNA, 30 min at 25 °C; 4-5% native PAGE, 0.5x TBE, 4 °C; conditions: protein: recombinant;recombinant;recombinant, tags: FLAG;FLAG;FLAG, copies: 1;1;1, label: IRDye 700 at 5' end of S5, 5-nt gap (CTATT of S4 unpaired), blunt outer ends
# Chain of Ku70/80 (Ku70 subunit);Ku70/80 (Ku80 subunit);Pol λ R57A/L60A (RL) (P12956 whole entry, chain 1 of 3): as the sequence (P12956 whole entry, chain 1 of 3) above
# Chain of Ku70/80 (Ku70 subunit);Ku70/80 (Ku80 subunit);Pol λ R57A/L60A (RL) (P13010 whole entry, chain 2 of 3): as the sequence (P13010 whole entry, chain 2 of 3) above
# Chain of Ku70/80 (Ku70 subunit);Ku70/80 (Ku80 subunit);Pol λ R57A/L60A (RL) (Q9UGP5 whole entry R57A/L60A, chain 3 of 3): as the sequence (Q9UGP5 whole entry, chain 3 of 3) above, with R57A, L60A counted along it
Binder,binding result [1],binding result [2],binding result [3],binding result [4]
5nt-gapped dsDNA 30-mer (dsDNA) DNA 1: ACTGGCCGTCGTTCTATTGTACTCACTGTGATC DNA 2: GATCACAGTGAGTAC DNA 3: AACGACGGCCAGT,binds,binds,binds,
"5nt-gapped dsDNA 33-mer (dsDNA, 5'-phosphate on the 13-mer) DNA 1: ACTGGCCGTCGTTCTATTGTACTCACTGTGATC DNA 2: GATCACAGTGAGTAC DNA 3: AACGACGGCCAGT",,,,no binding
